According to the RNAGym collection of RNA variant scans (doi:10.1021/acssynbio.7b00057):

B1: Pistol ribozyme (parent)
chain: GGGUCGUUGUUCCAUAAUCGCGUGGAUAUGGCACGCAAGUUUCUACCGGGCACCGUAAAUGUCCGACUGGAGCCGUUCGGGCGGCUAUAAACAGACCUCAGGCCCGAAGCGUGGCGGCACCUGCCGCCGGUGGUAAAAAAGAUCGGAAGAGCACACGUCU

Variants of: B1
Experiment: aptazyme ON/OFF ratio, guanine; higher = stronger switching; co-transcriptional cleavage with and without guanine
For GGGUCGGAGCUCAAUAAUCGCGUGGAUAUGGCACGCAAGUUUCUACCGGGCACCGUAAAUGUCCGACUGGAGCCGUUCGGGCGGCUAUAAACAGACCUCAGGCCCGAAGCGUGGCGGCACCUGCCGCCGGUGGUAAAAAAGAUCGGAAGAGCACACGUCU, the “aptazyme ON/OFF ratio” value was 1.23.
In the case of GGGUCGGAGCUCUAUAAUCGCGUGGAUAUGGCACGCAAGUUUCUACCGGGCACCGUAAAUGUCCGACUGGAGCCGUUCGGGCGGCUAUAAACAGACCUCAGGCCCGAAGCGUGGCGGCACCUGCCGCCGGUGGUAAAAAAGAUCGGAAGAGCACACGUCU, the “aptazyme ON/OFF ratio” value is reported as 1.49.
With GGGUCGGAGCUCGAUAAUCGCGUGGAUAUGGCACGCAAGUUUCUACCGGGCACCGUAAAUGUCCGACUGGAGCCGUUCGGGCGGCUAUAAACAGACCUCAGGCCCGAAGCGUGGCGGCACCUGCCGCCGGUGGUAAAAAAGAUCGGAAGAGCACACGUCU the “aptazyme ON/OFF ratio” value was 1.09.
In the case of GGGUCGGAGCCUAAUAAUCGCGUGGAUAUGGCACGCAAGUUUCUACCGGGCACCGUAAAUGUCCGACUGGAGCCGUUCGGGCGGCUAUAAACAGACCUCAGGCCCGAAGCGUGGCGGCACCUGCCGCCGGUGGUAAAAAAGAUCGGAAGAGCACACGUCU, the “aptazyme ON/OFF ratio” value is reported as 1.14.
In the case of GGGUCGGAGCCUGAUAAUCGCGUGGAUAUGGCACGCAAGUUUCUACCGGGCACCGUAAAUGUCCGACUGGAGCCGUUCGGGCGGCUAUAAACAGACCUCAGGCCCGAAGCGUGGCGGCACCUGCCGCCGGUGGUAAAAAAGAUCGGAAGAGCACACGUCU, the “aptazyme ON/OFF ratio” value is reported as 1.25.
For GGGUCGGAGCCUUAUAAUCGCGUGGAUAUGGCACGCAAGUUUCUACCGGGCACCGUAAAUGUCCGACUGGAGCCGUUCGGGCGGCUAUAAACAGACCUCAGGCCCGAAGCGUGGCGGCACCUGCCGCCGGUGGUAAAAAAGAUCGGAAGAGCACACGUCU, the “aptazyme ON/OFF ratio” value was 1.13.
With GGGUCGGAGCAUAAUAAUCGCGUGGAUAUGGCACGCAAGUUUCUACCGGGCACCGUAAAUGUCCGACUGGAGCCGUUCGGGCGGCUAUAAACAGACCUCAGGCCCGAAGCGUGGCGGCACCUGCCGCCGGUGGUAAAAAAGAUCGGAAGAGCACACGUCU the “aptazyme ON/OFF ratio” value was 1.3.
For GGGUCGGAGCAUGAUAAUCGCGUGGAUAUGGCACGCAAGUUUCUACCGGGCACCGUAAAUGUCCGACUGGAGCCGUUCGGGCGGCUAUAAACAGACCUCAGGCCCGAAGCGUGGCGGCACCUGCCGCCGGUGGUAAAAAAGAUCGGAAGAGCACACGUCU, the “aptazyme ON/OFF ratio” value was 1.19.
In the case of GGGUCGGAGCAUUAUAAUCGCGUGGAUAUGGCACGCAAGUUUCUACCGGGCACCGUAAAUGUCCGACUGGAGCCGUUCGGGCGGCUAUAAACAGACCUCAGGCCCGAAGCGUGGCGGCACCUGCCGCCGGUGGUAAAAAAGAUCGGAAGAGCACACGUCU, the “aptazyme ON/OFF ratio” value is reported as 1.34.
With GGGUCGGAGCCAAAUAAUCGCGUGGAUAUGGCACGCAAGUUUCUACCGGGCACCGUAAAUGUCCGACUGGAGCCGUUCGGGCGGCUAUAAACAGACCUCAGGCCCGAAGCGUGGCGGCACCUGCCGCCGGUGGUAAAAAAGAUCGGAAGAGCACACGUCU the “aptazyme ON/OFF ratio” value was 1.2.
For GGGUCGGAGCCAGAUAAUCGCGUGGAUAUGGCACGCAAGUUUCUACCGGGCACCGUAAAUGUCCGACUGGAGCCGUUCGGGCGGCUAUAAACAGACCUCAGGCCCGAAGCGUGGCGGCACCUGCCGCCGGUGGUAAAAAAGAUCGGAAGAGCACACGUCU, the “aptazyme ON/OFF ratio” value was 1.16.
For GGGUCGGAGCCAUAUAAUCGCGUGGAUAUGGCACGCAAGUUUCUACCGGGCACCGUAAAUGUCCGACUGGAGCCGUUCGGGCGGCUAUAAACAGACCUCAGGCCCGAAGCGUGGCGGCACCUGCCGCCGGUGGUAAAAAAGAUCGGAAGAGCACACGUCU, the “aptazyme ON/OFF ratio” value was 1.23.
For GGGUCGGAGCAGUAUAAUCGCGUGGAUAUGGCACGCAAGUUUCUACCGGGCACCGUAAAUGUCCGACUGGAGCCGUUCGGGCGGCUAUAAACAGACCUCAGGCCCGAAGCGUGGCGGCACCUGCCGCCGGUGGUAAAAAAGAUCGGAAGAGCACACGUCU, the “aptazyme ON/OFF ratio” value was 1.38.
In the case of GGGUCGGAGCAGAAUAAUCGCGUGGAUAUGGCACGCAAGUUUCUACCGGGCACCGUAAAUGUCCGACUGGAGCCGUUCGGGCGGCUAUAAACAGACCUCAGGCCCGAAGCGUGGCGGCACCUGCCGCCGGUGGUAAAAAAGAUCGGAAGAGCACACGUCU, the “aptazyme ON/OFF ratio” value is reported as 1.25.
In the case of GGGUCGGAGCAGGAUAAUCGCGUGGAUAUGGCACGCAAGUUUCUACCGGGCACCGUAAAUGUCCGACUGGAGCCGUUCGGGCGGCUAUAAACAGACCUCAGGCCCGAAGCGUGGCGGCACCUGCCGCCGGUGGUAAAAAAGAUCGGAAGAGCACACGUCU, the “aptazyme ON/OFF ratio” value is reported as 1.22.
With GGGUCGGAGCCGGAUAAUCGCGUGGAUAUGGCACGCAAGUUUCUACCGGGCACCGUAAAUGUCCGACUGGAGCCGUUCGGGCGGCUAUAAACAGACCUCAGGCCCGAAGCGUGGCGGCACCUGCCGCCGGUGGUAAAAAAGAUCGGAAGAGCACACGUCU the “aptazyme ON/OFF ratio” value was 1.06.
With GGGUCGGAGCCGAAUAAUCGCGUGGAUAUGGCACGCAAGUUUCUACCGGGCACCGUAAAUGUCCGACUGGAGCCGUUCGGGCGGCUAUAAACAGACCUCAGGCCCGAAGCGUGGCGGCACCUGCCGCCGGUGGUAAAAAAGAUCGGAAGAGCACACGUCU the “aptazyme ON/OFF ratio” value was 1.32.
For GGGUCGGAGCCGUAUAAUCGCGUGGAUAUGGCACGCAAGUUUCUACCGGGCACCGUAAAUGUCCGACUGGAGCCGUUCGGGCGGCUAUAAACAGACCUCAGGCCCGAAGCGUGGCGGCACCUGCCGCCGGUGGUAAAAAAGAUCGGAAGAGCACACGUCU, the “aptazyme ON/OFF ratio” value was 1.3.
For GGGUCGGAGCUUCAUAAUCGCGUGGAUAUGGCACGCAAGUUUCUACCGGGCACCGUAAAUGUCCGACUGGAGCCGUUCGGGCGGCUAUAAACAGACCUCAGGCCCGAAGCGUGGCGGCACCUGCCGCCGGUGGUAAAAAAGAUCGGAAGAGCACACGUCU, the “aptazyme ON/OFF ratio” value was 2.18.
With GGGUCGGAGCUUUAUAAUCGCGUGGAUAUGGCACGCAAGUUUCUACCGGGCACCGUAAAUGUCCGACUGGAGCCGUUCGGGCGGCUAUAAACAGACCUCAGGCCCGAAGCGUGGCGGCACCUGCCGCCGGUGGUAAAAAAGAUCGGAAGAGCACACGUCU the “aptazyme ON/OFF ratio” value was 1.32.
With GGGUCGGAGCUUGAUAAUCGCGUGGAUAUGGCACGCAAGUUUCUACCGGGCACCGUAAAUGUCCGACUGGAGCCGUUCGGGCGGCUAUAAACAGACCUCAGGCCCGAAGCGUGGCGGCACCUGCCGCCGGUGGUAAAAAAGAUCGGAAGAGCACACGUCU the “aptazyme ON/OFF ratio” value was 1.26.
With GGGUCGGAGCUUAAUAAUCGCGUGGAUAUGGCACGCAAGUUUCUACCGGGCACCGUAAAUGUCCGACUGGAGCCGUUCGGGCGGCUAUAAACAGACCUCAGGCCCGAAGCGUGGCGGCACCUGCCGCCGGUGGUAAAAAAGAUCGGAAGAGCACACGUCU the “aptazyme ON/OFF ratio” value was 1.24.
For GGGUCGGAGCACAAUAAUCGCGUGGAUAUGGCACGCAAGUUUCUACCGGGCACCGUAAAUGUCCGACUGGAGCCGUUCGGGCGGCUAUAAACAGACCUCAGGCCCGAAGCGUGGCGGCACCUGCCGCCGGUGGUAAAAAAGAUCGGAAGAGCACACGUCU, the “aptazyme ON/OFF ratio” value was 1.39.
For GGGUCGGAGCACGAUAAUCGCGUGGAUAUGGCACGCAAGUUUCUACCGGGCACCGUAAAUGUCCGACUGGAGCCGUUCGGGCGGCUAUAAACAGACCUCAGGCCCGAAGCGUGGCGGCACCUGCCGCCGGUGGUAAAAAAGAUCGGAAGAGCACACGUCU, the “aptazyme ON/OFF ratio” value was 1.23.
With GGGUCGGAGCACUAUAAUCGCGUGGAUAUGGCACGCAAGUUUCUACCGGGCACCGUAAAUGUCCGACUGGAGCCGUUCGGGCGGCUAUAAACAGACCUCAGGCCCGAAGCGUGGCGGCACCUGCCGCCGGUGGUAAAAAAGAUCGGAAGAGCACACGUCU the “aptazyme ON/OFF ratio” value was 1.44.
For GGGUCGGAGCCACAUAAUCGCGUGGAUAUGGCACGCAAGUUUCUACCGGGCACCGUAAAUGUCCGACUGGAGCCGUUCGGGCGGCUAUAAACAGACCUCAGGCCCGAAGCGUGGCGGCACCUGCCGCCGGUGGUAAAAAAGAUCGGAAGAGCACACGUCU, the “aptazyme ON/OFF ratio” value was 1.46.
In the case of GGGUCGGAGCCUCAUAAUCGCGUGGAUAUGGCACGCAAGUUUCUACCGGGCACCGUAAAUGUCCGACUGGAGCCGUUCGGGCGGCUAUAAACAGACCUCAGGCCCGAAGCGUGGCGGCACCUGCCGCCGGUGGUAAAAAAGAUCGGAAGAGCACACGUCU, the “aptazyme ON/OFF ratio” value is reported as 1.31.
With GGGUCGGAGCCGCAUAAUCGCGUGGAUAUGGCACGCAAGUUUCUACCGGGCACCGUAAAUGUCCGACUGGAGCCGUUCGGGCGGCUAUAAACAGACCUCAGGCCCGAAGCGUGGCGGCACCUGCCGCCGGUGGUAAAAAAGAUCGGAAGAGCACACGUCU the “aptazyme ON/OFF ratio” value was 1.29.
With GGGUCGGAGCAAGAUAAUCGCGUGGAUAUGGCACGCAAGUUUCUACCGGGCACCGUAAAUGUCCGACUGGAGCCGUUCGGGCGGCUAUAAACAGACCUCAGGCCCGAAGCGUGGCGGCACCUGCCGCCGGUGGUAAAAAAGAUCGGAAGAGCACACGUCU the “aptazyme ON/OFF ratio” value was 1.23.
For GGGUCGGAGCAAUAUAAUCGCGUGGAUAUGGCACGCAAGUUUCUACCGGGCACCGUAAAUGUCCGACUGGAGCCGUUCGGGCGGCUAUAAACAGACCUCAGGCCCGAAGCGUGGCGGCACCUGCCGCCGGUGGUAAAAAAGAUCGGAAGAGCACACGUCU, the “aptazyme ON/OFF ratio” value was 1.39.
With GGGUCGGAGCAAAAUAAUCGCGUGGAUAUGGCACGCAAGUUUCUACCGGGCACCGUAAAUGUCCGACUGGAGCCGUUCGGGCGGCUAUAAACAGACCUCAGGCCCGAAGCGUGGCGGCACCUGCCGCCGGUGGUAAAAAAGAUCGGAAGAGCACACGUCU the “aptazyme ON/OFF ratio” value was 1.49.
In the case of GGGUCGGAGCCCCAUAAUCGCGUGGAUAUGGCACGCAAGUUUCUACCGGGCACCGUAAAUGUCCGACUGGAGCCGUUCGGGCGGCUAUAAACAGACCUCAGGCCCGAAGCGUGGCGGCACCUGCCGCCGGUGGUAAAAAAGAUCGGAAGAGCACACGUCU, the “aptazyme ON/OFF ratio” value is reported as 1.11.
With GGGUCGGAGCACCAUAAUCGCGUGGAUAUGGCACGCAAGUUUCUACCGGGCACCGUAAAUGUCCGACUGGAGCCGUUCGGGCGGCUAUAAACAGACCUCAGGCCCGAAGCGUGGCGGCACCUGCCGCCGGUGGUAAAAAAGAUCGGAAGAGCACACGUCU the “aptazyme ON/OFF ratio” value was 2.3.
In the case of GGGUCGGAGCAUCAUAAUCGCGUGGAUAUGGCACGCAAGUUUCUACCGGGCACCGUAAAUGUCCGACUGGAGCCGUUCGGGCGGCUAUAAACAGACCUCAGGCCCGAAGCGUGGCGGCACCUGCCGCCGGUGGUAAAAAAGAUCGGAAGAGCACACGUCU, the “aptazyme ON/OFF ratio” value is reported as 1.42.
In the case of GGGUCGGAGCAGCAUAAUCGCGUGGAUAUGGCACGCAAGUUUCUACCGGGCACCGUAAAUGUCCGACUGGAGCCGUUCGGGCGGCUAUAAACAGACCUCAGGCCCGAAGCGUGGCGGCACCUGCCGCCGGUGGUAAAAAAGAUCGGAAGAGCACACGUCU, the “aptazyme ON/OFF ratio” value is reported as 1.54.
In the case of GGGUCGGAGCAACAUAAUCGCGUGGAUAUGGCACGCAAGUUUCUACCGGGCACCGUAAAUGUCCGACUGGAGCCGUUCGGGCGGCUAUAAACAGACCUCAGGCCCGAAGCGUGGCGGCACCUGCCGCCGGUGGUAAAAAAGAUCGGAAGAGCACACGUCU, the “aptazyme ON/OFF ratio” value is reported as 1.32.
